From the FLAb antibody collection (doi:10.7554/elife.23156) come the findings set out here.

The labels stand for the following.
B1: scFv; the commonest letter at each place (parent)
chain 1: EVKLDETGGGLVQPGRPMKLSCVASGFTFSDYWMNWVRQSPEKGLEWVAQIRNKPYNYETYYSDSVKGRFTISRDDSKSSVYLQMNNLRVEDMGIYYCTGSYYGMDYWGQGTSVTVS
chain 2: DVVMTQTPLSLPVSLGDQASISCRSSQSLVHSNGNTYLRWYLQKPGQSPKVLIYKVSNRFSGVPDRFSGSGSGTDFTLKISRVEAEDLGVYFCSQSTHVPWTFGGGTKLEIK

The series “fluorescein” covers variants of B1. Briefly: Kd (Tite-Seq). Conditions: with fluorescein; format: scFv 4-4-20, heavy + light.
Series [1] covers variants of B1. The series can be described thus: yeast surface expression (ratio to wild type); higher = more expressed. The following applies: format: scFv 4-4-20, heavy + light.

As for chain 1 M105I Y107Q, in the series with fluorescein, the Kd was 8.13 µM. In series [1], the yeast surface expression is 0.872.

For chain 1 M105I Y107W, the Kd in the series with fluorescein worked out at 0.105 µM. Further, in series [1], the yeast surface expression came out at 0.669.

Turning to chain 1 M105I Y107S, in the series with fluorescein, the Kd is at least 10 µM. In addition, the yeast surface expression in series [1] was 0.853.

For chain 1 M105F W108L, in the series with fluorescein, the Kd stood at 0.00175 µM. Moreover, the yeast surface expression in series [1] stood at 0.451.

As to chain 1 M105F W108Y, the Kd in the series with fluorescein is 0.0113 µM. Also, in series [1], the yeast surface expression came to 0.656.

Regarding chain 1 M105E, the Kd with fluorescein came out at 4.15 µM. Besides, the yeast surface expression in series [1] amounted to 1.01.

On to chain 1 M105R, for which the dissociation constant (Kd) in the series with fluorescein worked out at 0.021 µM. Further, the yeast surface expression in series [1] was 1.

Consider chain 1 M105A, for which the Kd in the series with fluorescein is at least 10 µM. Moreover, in series [1], the yeast surface expression stood at 1.01.

Consider chain 1 M105W, for which the Kd in the series with fluorescein came out at 0.00251 µM. Moreover, the yeast surface expression in series [1] amounted to 0.648.

For the variant chain 1 M105V, in the series with fluorescein, the equilibrium dissociation constant (Kd) stood at 4.25 µM. In addition, the yeast surface expression in series [1] came to 0.993.

As to chain 1 M105Q, the Kd with fluorescein stood at 0.0423 µM. For the same variant, the yeast surface expression in series [1] worked out at 1.23.

As to chain 1 M105G, the Kd in the series with fluorescein was at least 10 µM. Moreover, the yeast surface expression in series [1] worked out at 0.761.

As to chain 1 M105P, the Kd with fluorescein is at least 10 µM. Also, the yeast surface expression in series [1] worked out at 0.648.

Regarding chain 1 M105D, in the series with fluorescein, the dissociation constant (Kd) was at least 10 µM. Moreover, the yeast surface expression in series [1] was found to be 0.695.

For the variant chain 1 M105F, the Kd in the series with fluorescein stood at 0.945 µM. The yeast surface expression in series [1] was found to be 0.745.

For chain 1 M105H, the Kd with fluorescein is at least 10 µM. In addition, the yeast surface expression in series [1] was 1.06.

Consider chain 1 M105C, for which, in the series with fluorescein, the Kd is 4.48 µM. Moreover, in series [1], the yeast surface expression was 0.861.

As for chain 1 M105N, the Kd with fluorescein amounted to 0.0233 µM. Also, in series [1], the yeast surface expression was 0.844.

Turning to chain 1 M105K, the Kd with fluorescein is 0.00546 µM. Also, the yeast surface expression in series [1] stood at 1.02.

Take chain 1 M105T: the Kd with fluorescein was at least 10 µM. For the same variant, the yeast surface expression in series [1] was 1.

Regarding chain 1 M105I, the Kd in the series with fluorescein worked out at 0.0335 µM. In addition, in series [1], the yeast surface expression was 0.914.

Consider chain 1 M105L, for which the Kd with fluorescein was 0.00519 µM. For the same variant, the yeast surface expression in series [1] is 0.924.

Regarding chain 1 M105S, the Kd with fluorescein was at least 10 µM. In addition, the yeast surface expression in series [1] was 0.889.

As for chain 1 M34I N35W, the Kd with fluorescein is at least 10 µM. In addition, the yeast surface expression in series [1] was determined as 0.41.

As to chain 1 M34L V37T, the Kd with fluorescein was at least 10 µM. Further, the yeast surface expression in series [1] turned out to be 0.546.

In the case of chain 1 M105D W108T, in the series with fluorescein, the Kd was at least 10 µM. Also, the yeast surface expression in series [1] turned out to be 0.455.

For chain 1 M105D W108S, the Kd with fluorescein was at least 10 µM. Moreover, the yeast surface expression in series [1] was found to be 0.458.

Regarding chain 1 M105G G109S, in the series with fluorescein, the Kd was at least 10 µM. Besides, the yeast surface expression in series [1] stood at 0.794.

With chain 1 M34S W36Q, the dissociation constant Kd with fluorescein is at least 10 µM. Further, the yeast surface expression in series [1] is 0.147.

With chain 1 M34S W36A, the dissociation constant (Kd) with fluorescein was at least 10 µM. Moreover, the yeast surface expression in series [1] turned out to be 0.437.

Consider chain 1 M34S W36K, for which, in the series with fluorescein, the Kd is at least 10 µM. Moreover, the yeast surface expression in series [1] is 0.646.

Consider chain 1 M105Q W108E, for which the Kd with fluorescein is at least 10 µM. Further, the yeast surface expression in series [1] was found to be 0.438.

Take chain 1 M105H W108Q: the Kd with fluorescein is at least 10 µM. In addition, the yeast surface expression in series [1] was 0.294.

As for chain 1 M105H W108D, the Kd in the series with fluorescein is at least 10 µM. Also, the yeast surface expression in series [1] stood at 0.353.

Take chain 1 M105D Y107D: in the series with fluorescein, the Kd was at least 10 µM. Also, the yeast surface expression in series [1] came out at 0.442.

chain 1 M34I V37S: the Kd with fluorescein stood at 0.0353 µM. In series [1], the yeast surface expression came to 0.776.

For chain 1 M34I V37I, the Kd in the series with fluorescein stood at 0.00827 µM. Further, the yeast surface expression in series [1] worked out at 0.831.

For chain 1 M34I V37Q, the Kd with fluorescein is 0.00184 µM. Moreover, the yeast surface expression in series [1] was 0.474.

As for chain 1 M34I V37M, the Kd in the series with fluorescein is 0.00184 µM. In addition, the yeast surface expression in series [1] was 0.847.

For chain 1 M105S Y107W, the Kd with fluorescein is at least 10 µM. Besides, the yeast surface expression in series [1] was found to be 0.826.

chain 1 M105L Y107I: the Kd with fluorescein worked out at 2.34 µM. Moreover, the yeast surface expression in series [1] was 1.09.

On to chain 1 M105L Y107V, for which, in the series with fluorescein, the Kd is 1.72 µM. Also, the yeast surface expression in series [1] is 1.08.

Turning to chain 1 M105V Y107A, in the series with fluorescein, the Kd is at least 10 µM. In series [1], the yeast surface expression was 0.758.

chain 1 M105V Y107H: the Kd in the series with fluorescein is at least 10 µM. Moreover, in series [1], the yeast surface expression was 0.957.

For chain 1 M34K N35S, the Kd with fluorescein is at least 10 µM. For the same variant, in series [1], the yeast surface expression was determined as 1.46.

In the case of chain 1 M34K N35A, in the series with fluorescein, the Kd stood at 0.0692 µM. Besides, the yeast surface expression in series [1] amounted to 0.175.

In the case of chain 1 M34C W36L, the Kd with fluorescein was at least 10 µM. In addition, in series [1], the yeast surface expression worked out at 0.524.

In the case of chain 1 M105R G109T, the Kd in the series with fluorescein was at least 10 µM. In addition, the yeast surface expression in series [1] turned out to be 0.344.

Take chain 1 M105R G109W: in the series with fluorescein, the Kd is at least 10 µM. Moreover, the yeast surface expression in series [1] was 0.232.

For chain 1 M34Y N35R, the Kd with fluorescein is at least 10 µM. In addition, the yeast surface expression in series [1] was 0.505.

In the case of chain 1 M34Y N35V, the Kd with fluorescein is at least 10 µM. In series [1], the yeast surface expression was determined as 0.434.

On to chain 1 M34K V37W, for which the Kd with fluorescein is at least 10 µM. Moreover, the yeast surface expression in series [1] is 0.494.

Consider chain 1 M105N G109Q, for which, in the series with fluorescein, the Kd is at least 10 µM. The yeast surface expression in series [1] came to 0.235.

Consider chain 1 M105N G109C, for which the Kd with fluorescein is at least 10 µM. Also, in series [1], the yeast surface expression was 0.123.

Consider chain 1 M105N G109A, for which, in the series with fluorescein, the Kd was at least 10 µM. In addition, the yeast surface expression in series [1] amounted to 0.467.

As to chain 1 M105N G109E, in the series with fluorescein, the equilibrium dissociation constant (Kd) is at least 10 µM. Besides, the yeast surface expression in series [1] stood at 0.266.

Regarding chain 1 M105K Y107T, the Kd in the series with fluorescein was determined as 0.712 µM. Further, the yeast surface expression in series [1] is 0.559.
